{"source": "patent US20240132559", "key": {"[1]": {"biological_target": "ZF16-MQ1 (synthetic) (UniProt P15840)", "sequence (P15840 other isoform, or with tags, fused parts or gaps)": "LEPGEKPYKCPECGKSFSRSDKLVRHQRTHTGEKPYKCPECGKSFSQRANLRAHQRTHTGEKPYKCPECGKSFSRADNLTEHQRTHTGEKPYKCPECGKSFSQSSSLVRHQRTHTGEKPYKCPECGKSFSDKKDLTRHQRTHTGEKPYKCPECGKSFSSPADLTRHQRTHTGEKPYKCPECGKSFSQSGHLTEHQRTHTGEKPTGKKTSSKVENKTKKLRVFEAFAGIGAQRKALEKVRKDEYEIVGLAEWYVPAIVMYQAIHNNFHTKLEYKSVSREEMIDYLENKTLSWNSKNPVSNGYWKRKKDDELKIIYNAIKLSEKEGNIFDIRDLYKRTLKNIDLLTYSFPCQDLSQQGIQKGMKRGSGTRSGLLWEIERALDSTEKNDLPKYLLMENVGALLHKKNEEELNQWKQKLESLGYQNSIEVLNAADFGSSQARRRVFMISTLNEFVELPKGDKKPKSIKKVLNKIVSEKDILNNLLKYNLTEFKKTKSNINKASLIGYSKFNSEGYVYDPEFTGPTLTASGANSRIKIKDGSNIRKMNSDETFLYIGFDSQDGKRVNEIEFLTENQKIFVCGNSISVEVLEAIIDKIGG", "test": "cell_activity", "settings": "LL2 cells"}, "[2]": {"biological_target": "ZF17-MQ1 (synthetic) (UniProt P15840)", "sequence (P15840 other isoform, or with tags, fused parts or gaps)": "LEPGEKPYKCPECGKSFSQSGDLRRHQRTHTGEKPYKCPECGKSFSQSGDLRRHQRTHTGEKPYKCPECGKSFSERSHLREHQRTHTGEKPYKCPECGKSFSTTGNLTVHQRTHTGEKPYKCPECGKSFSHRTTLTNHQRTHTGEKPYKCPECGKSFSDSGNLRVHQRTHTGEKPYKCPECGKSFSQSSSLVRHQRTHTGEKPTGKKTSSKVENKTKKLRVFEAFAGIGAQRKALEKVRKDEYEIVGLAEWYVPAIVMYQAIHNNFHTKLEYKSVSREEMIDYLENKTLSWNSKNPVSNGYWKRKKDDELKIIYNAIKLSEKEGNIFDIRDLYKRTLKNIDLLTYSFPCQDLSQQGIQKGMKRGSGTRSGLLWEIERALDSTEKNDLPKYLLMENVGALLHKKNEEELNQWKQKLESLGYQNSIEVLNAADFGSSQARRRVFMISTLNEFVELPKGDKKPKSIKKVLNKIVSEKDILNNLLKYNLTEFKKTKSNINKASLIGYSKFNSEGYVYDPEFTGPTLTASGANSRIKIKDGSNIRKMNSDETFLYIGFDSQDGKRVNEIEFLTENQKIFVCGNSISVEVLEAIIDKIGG", "test": "cell_activity", "settings": "LL2 cells"}}, "data": [{"substance": "mouse Myc genomic locus", "values": [{"measurement": "activity (% MYC mRNA reduction)", "setting": "[1]", "result": 74}, {"measurement": "activity (% MYC mRNA reduction)", "setting": "[2]", "result": "> 99.9"}]}]}
